Experiment [1] deals with FcγRIIIa V176 (UniProt P08637).
Experiment [2] deals with FcγRIIIa F176 (UniProt P08637). The experiment in a line: SPR; Biacore T200, 25°C, HBS-EP+; anti-His antibody amine-coupled on a CM5 chip captures the His-tagged FcγR; rituximab injected at five increasing concentrations (150 s, 30 µl/min), single-cycle kinetics, dissociation 600 s; 1:1 binding model, KD from kd/ka.
The target in experiment [3] is FcγRIIIa V176 (UniProt P08637). The description is as above.
Experiment [4] has as its target FcγRIIIa F176 (UniProt P08637). The experiment in a line: SPR; Biacore T200, 25°C, HBS-EP+; His-tagged FcγR captured by anti-His antibody on a CM5 chip, rituximab injected; single-cycle kinetics, five concentrations, 600 s dissociation; 1:1 binding model, KD from kd/ka. A general note: Surface plasmon resonance follows binding to a sensor surface in real time, without labels.

Experiment [5] addresses FcγRI (UniProt P12314). Described as above.
Sequence of UniProt P12314 (P12314 16-292): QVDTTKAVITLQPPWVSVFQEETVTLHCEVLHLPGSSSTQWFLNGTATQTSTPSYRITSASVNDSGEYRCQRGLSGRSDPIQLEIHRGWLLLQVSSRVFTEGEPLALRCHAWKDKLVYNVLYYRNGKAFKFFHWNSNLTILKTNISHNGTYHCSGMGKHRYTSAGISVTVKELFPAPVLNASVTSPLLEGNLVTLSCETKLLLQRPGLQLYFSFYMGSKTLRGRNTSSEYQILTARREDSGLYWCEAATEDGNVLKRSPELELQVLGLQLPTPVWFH
The target in experiment [6] is FcγRIIb (UniProt P31994). Description: SPR; Biacore T200, 25°C, HBS-EP+; His-tagged FcγRIIb captured by anti-His antibody on a CM5 chip (404 RU), rituximab injected at 375-6000 nM; steady-state model, report points 15 s after injection start.
Sequence of UniProt P31994 (P31994 43-217): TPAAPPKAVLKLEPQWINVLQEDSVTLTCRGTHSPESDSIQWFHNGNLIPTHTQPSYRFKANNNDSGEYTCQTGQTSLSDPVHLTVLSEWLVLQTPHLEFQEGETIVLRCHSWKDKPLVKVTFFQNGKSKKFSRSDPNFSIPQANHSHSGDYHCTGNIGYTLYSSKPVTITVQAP
The target of experiment [7] is FcγRIIb (UniProt P31994). The experiment in a line: SPR; Biacore T200, 25°C, HBS-EP+; anti-His antibody on a CM5 chip captures His-tagged FcγRIIb (404 RU); rituximab 375-6000 nM injected; steady-state model, report points 15 s after injection start.
Experiment [8] concerns the target FcγRI (UniProt P12314). Description: SPR; Biacore T200, 25°C, HBS-EP+; anti-His antibody amine-coupled on a CM5 chip captures the His-tagged FcγR; rituximab injected at five increasing concentrations (150 s, 30 µl/min), single-cycle kinetics, dissociation 600 s; 1:1 binding model, KD from kd/ka.

pKd: −log10 of the molar value.

“modified rituximab (46% afucosylation and 48% thiofucosylation) (antibody)” displayed an EC50 of the ADCC Reporter Bioassay (Promega G7015); Day 7 samples from 200, 400 and 800 µM ThioFuc (38, 34, 37 ng/mL); FcγRIIIa variant on the effector cells not stated with FcγRIIIa V176 [1] of 0.038 µg/mL. Also, the pKd in the experiment with FcγRIIIa F176 [2] is 7.15; with FcγRIIIa V176 [3], 7.89; in the experiment with FcγRIIIa F176 [4], 7.14; with FcγRI [5], 7.95; with FcγRIIb [6], 6.05; with FcγRIIb [7], 6.04.
On to “rituximab (8.5% afucosylation) (antibody)”, for which, in the experiment with FcγRIIIa V176 [1], the EC50 of the ADCC Reporter Bioassay (Promega G7015): Raji target cells, engineered Jurkat effector cells, luciferase; FcγRIIIa variant on the effector cells not stated came out at 0.087 µg/mL. For the same substance, the values for the negative-log Kd (pKd) with FcγRI [8] and with FcγRI [5] were 7.92 and 7.85, respectively.

Broadly, the pKd is the Kd on a negative log10 scale, so that one unit is a factor of ten.
